Values quoted from earlier work, collected in PMC6438182.

Target: GATAD2A coiled-coil (Homo sapiens) (UniProt Q86YP4)
Sequence of UniProt Q86YP4 (Q86YP4 137-178): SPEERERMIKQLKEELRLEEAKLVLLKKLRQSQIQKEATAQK

In the case of MBD2 coiled-coil (from UniProt Q9UBB5), the Kd is listed as 42 nM.
